# Results from article PMC3399765 (2011).
# B1: FBP21 WW domains (protein)
# chain: DPSKGRWVEGITSEGYHYYYDLISGASQWEKPEGFQGDLKKTAVKTVWVEGLSEDGFTYYYNTETGESRWEKPDD
# Target: SMB20 peptide (Homo sapiens, UniProt P14678)
# Test: ITC
binder,measurement,value
B1,Kd,16.4 µM
